Laboratory results taken from US20160052979.

Tests used:
Purα (PURA) = experiment: EMSA; conditions: unit not stated, densitometry
TZIP (synthetic) = test system: T1, TZIP (synthetic); experiment: EMSA; conditions: unit not stated, densitometry
T1 sequence: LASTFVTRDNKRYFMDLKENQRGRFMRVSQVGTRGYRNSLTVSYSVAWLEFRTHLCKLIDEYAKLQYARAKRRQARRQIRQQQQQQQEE

Row | Substance | Kd (Purα (PURA); 5 mM DTT, 5 mM EDTA, 0.5% Tween 20) | Kd (TZIP (synthetic); printed 5.5×1010, exponent sign lost, 5 mM DTT, 5 mM EDTA, 0.5% Tween 20, TZIP alters Purα shift and stimulates …) | Kd (Purα (PURA); printed 1.9×109, exponent sign lost) | Kd (TZIP (synthetic); printed 9.5×1010, exponent sign lost, TZIP stimulates Purα binding)
1 | ALS ssDNA (C9ORF72 GGGGCC hexanucleotide repeat) | 16 nM | 0.55 nM | – | –
2 | FXS ssDNA (FMR1 G-rich trinucleotide expanded repeat) | – | – | 1.9 nM | 0.95 nM
